Biological target: NKG2D ligands (NKG2DLs) on human TNBC cell lines
Experiment: cell-based or functional assay

Row | Substance | cytotoxicity (overnight luminescence based assay, MDA-MB-231 fLuc) [%]
1 | NKG2D_41BB_CD3Zeta CAR (receptor) | > 60
2 | NKG2D_CD3Zeta CAR (receptor) | > 60
3 | NKG2D_CD27_CD3Zeta CAR (receptor) | > 60

From patent publication US20210269501A1
